What all share (format): cell-based, Yarrowia
The subject of test [1] is olivetolic acid. As to the kind of experiment: Unfused rMPTs and APTs, CBGA/FCBGA formation in vivo assay (Example 4). As to conditions: for CBGA / FCBGA / CBGA/FCB: 2 mM olivetolic acid, 48 h quench; for CBGA / FCBGA: 2% glucose, strain sCL-SE-0128; for CBGA/FCB: product ratio. The protocol:
(§1) As described below, plasmids pCL-SE-0380 (MPT4), pCL-SE-0337.MPT4, pCL-SE-0338.APT73.74, and pCL-SE-0338.APT73.77 were transformed into strain sCL-SE-0128. Multiple colonies per transformation were precultured for 48 h in YNB containing glucose (2%), casamino acids (0.5%), and MES (100 mM pH 6.5). Pre-culture was used to inoculate assay medium comprised of YNB containing glucose (2%), casamino acids (0.5%), MES (100 mM pH 6.5), and olivetolic acid or divarinic acid (2 mM). Cultures were quenched with equal volume of ethanol after 48 h total growth and assayed for CBG(V)A and FCBG(V)A. Averages and standard deviations were calculated from replicates.
(§2) Overnight YPD (10 g/L yeast extract, 20 g/L peptone, 2% dextrose) cultures were inoculated from glycerol stocks of the appropriate strain and grown at 30° C. with 250 rpm shaking. Once cultures had reached an OD600 of 4-6, cultures were centrifuged at 500×g for 5 min, supernatants were discarded, and cell pellets were resuspended in equal volume of water. Resuspended cells were centrifuged at 500×g for 5 min, supernatants were discarded, and cells were resuspended in a volume (75 μL×OD×Vculture) of transformation cocktail (45% PEG-400, 0.1 M LiAc, 0.1 M DTT, and 25 ug/100 μL SS Salmon Sperm DNA). For each transformation, >1 μg of plasmid DNA was added to 55 μL cells/transformation cocktail and vortexed for 2 s. Transformations were incubated at 39° C. for 1 h with 250 rpm shaking. Transformations were resuspended in 750 μL YPD with 1 M sorbitol and recovered at 30° C. overnight with 250 rpm shaking. The next day, transformations were centrifuged at 500×g for 5 min, supernatants were discarded, and cell pellets were resuspended in 750 YPD. Resuspended transformations were plated on YPD with appropriate selection or YNBD (6.71 g/L yeast nitrogen base+nitrogen, 0.5% casamino acids, 2% dextrose) agar plates and grown at 30° C. for 2 days. Individual colonies were patched onto YPD plates with appropriate selection or YNBD plates and grown at 30° C. overnight. Patches were used to inoculate 0.5 mL YPD with appropriate selection or YNBD precultures in 96 w blocks and grown at 30° C. for 24-48 h with 1000 rpm shaking. For assays, 0.5 mL YPD with appropriate selection or YNBD cultures containing substrate were inoculated with 2 μL from precultures and grown at 30° C. for 2-4 days with 1000 rpm shaking with 2% glucose added every 24 h. Assay cultures were quenched by addition of 0.5 mL ethanol with 0.2% formic acid and 0.5 mg/mL pentyl-benzoic acid. Precipitates were pelleted by centrifuging at 4600×g for 10 min and then 200 μL was transferred to fresh plates, sealed, and analyzed via HPLC.
(§3) All samples were quenched with equal volume of EtOH containing 0.2 mg/mL internal standard (3,5-Diisopropyl-2-hydroxybenzoic acid CAS #2215-21-6) centrifuged, and clarified solutions were analyzed by HPLC-MS
(§4) • Column: 2.1×50 mm COSMOCORE PBr (Nacalai USA, Inc.) • Mobile Phase: A; 0.1% formic acid in water, B; 0.1% formic acid in acetonitrile • Flow: 0.45 mL/min • Temp: % 50 Celsius • Gradient: 20%B at 0 min, 70%B at 2.3 min, 89% B at 4.2 min, 20% B at 4.3 min, 20%B at 6 min

The subject of test [2] is divarinic acid. Briefly: Unfused rMPTs and APTs, CBGVA/FCBGVA formation in vivo assay (Example 4). The settings on record: 2 mM divarinic acid, 48 hour quench; for CBGVA / FCBGVA: 2% glucose, strain sCL-SE-0128. The protocol: as §1, §2, §3, §4
Test [3] deals with olivetolic acid. Briefly: MPT4.1 with and without GPS1.1 fusion vs MPT4 fusion, in vivo assay (Example 5). As to conditions: 3 mM olivetolic acid, 48 h quench. As to the method: (§5) As described below, plasmids pCL-SE-0337.MPT4.1 and pCL-SE-0753 were transformed into strain sCL-SE-0128. Multiple colonies per transformation were precultured for 24 h in YNB containing glucose (2%), casamino acids (0.5%), and MES (100 mM pH 6.5). Pre-culture was used to inoculate assay medium comprised of YNB containing glucose (6%), casamino acids (0.5%), MES (100 mM pH 6.5), and olivetolic acid (3 mM). Cultures were quenched with equal volume of ethanol after 48 h total growth and assayed for CBGA and FCBGA. Averages and standard deviations were calculated from replicates.
as §2, §3, §4

In test [4] the test system is olivetolic acid. As to the kind of experiment: MPT fusions with GPS1.1 vs unfused MPTs, OA feed (Example 8, Table 9). As to conditions: 2 mM olivetolic acid, 48 h quench. As to the method:
as §5, with “pCL-SE-0406, pCL-SE-0664, pCL-SE-0663, pCL-SE-0662, pCL-SE-0380 (MPT4), pCL-SE-0337.MPT21, pCL-SE-0337.MPT26,” for “pCL-SE-0337.MPT4.1”, “pCL-SE-0337.MPT31” for “pCL-SE-0753”, “48” for “24”, “(2%),” for “(6%),”, “(2” for “(3”
as §2, §3, §4

For test [5], the system named is olivetolic acid. As to the kind of experiment: Linkers for GPS1.1-MPT4 fusions, in vivo assay (Example 6). The settings on record: 1 mM olivetolic acid, 72 h quench. As to the method:
As described in detail below, plasmids pCL-SE-0380 (MPT4), pCL-SE-0406, pCL-SE-0435, and pCL-SE-0437 were transformed into strain sCL-SE-0128. Four separate colonies per transformation were precultured for 24 h in YNB containing glycerol (2%), casamino acids (0.5%), and MES (100 mM pH 6.5). Pre-culture was used to inoculate assay medium comprised of YNB containing glycerol (2%), casamino acids (0.5%), MES (100 mM pH 6.5), and olivetolic acid (1 mM). Cultures were quenched after 72 h total growth by mixing with equal volume of EtOH. Enzymes produced CBGA and FCBGA. Averages and standard deviations were calculated from replicates.
However, sCL-SE-0128 expresses HMGR and GPS1.1 to increase intracellular GPP levels for prenylation of OA to CBGA. The plasmids that were transformed contain either a gene expressing a prenyl-transferase (pCL-SE-0380 (MPT4)) or a gene expressing a fusion between GPS1.1 and a prenyl-transferase with different linker sequences.
as §2, §3, §4

The test system of test [6] is divarinic acid. Briefly: MPT fusions with GPS1.1 vs unfused MPTs, DVA feed (Example 9, Table 11). As to conditions: 2 mM divarinic acid, 2% glucose, quenched after 48 h; strain sCL-SE-0128. As to the method: as §1, with “plasmids pCL-SE-0406, pCL-SE-0664, pCL-SE-0663, pCL-SE-0662,” for “plasmids”, “pCL-SE-0337.MPT21,” for “pCL-SE-0337.MPT4, pCL-SE-0338.APT73.74, and pCL-SE-0338.APT73.77”, “and” for “and olivetolic acid or”, “quenched” for “quenched with equal volume of ethanol”, “CBGVA” for “CBG(V)A”, “FCBGVA.” for “FCBG(V)A.”
as §2, §3, §4

For test [7], the system named is olivetolic acid. Briefly: GPS-APT fusions, OA feed in vivo assay (Example 11). The protocol: as §5, with “pCL-SE-0406, pCL-SE-0664, pCL-SE-0663, pCL-SE-0662, pCL-SE-0380 (MPT4), pCL-SE-0337.MPT21, pCL-SE-0337.MPT26,” for “pCL-SE-0337.MPT4.1”, “pCL-SE-0337.MPT31” for “pCL-SE-0753”, “48” for “24”, “(2%),” for “(6%),”, “(2” for “(3”
Soluble prenyl transferase APT73.77 was fused with GPS1.1 at the N- or C-terminus with different linkers creating the plasmids shown in Table 14. These fusion proteins were expressed and screened as described in Example 8 (olivetolic acid feed)
as §2, §3, §4

[8] abbreviates: 2% glycerol, strain sCL-SE-0128.
[9] abbreviates: in words, between APT73 mutants.
The mark [10] stands for this setting: olivetolic acid feed as in Example 8, 48 h quench, strain sCL-SE-0128.

Where a chain is given by its changes, count along the chain named.

B1: MPT4.1 (protein)
chain: MSDNSIATKILNFGHTCWKLQRPYAVKGMISIACGLFGRELFNNRHLFSWGLMWKAFFALVPILSFNFFAAIMNQIYDVDIDRINKPDLPLVSGEMSIETAWILSIIVALTGLIVTIKLKSAPLFVFIYIFGIFAGFAYSVPPIRWKQYPFTNFLITISSHVGLAFTSYSATTSALGLPFVWRPAFSFIIAFMTVMGMTIAFAKDISDIEGDAKYGVSTVATKLGARNMTFVVSGVLLLNYLVSISIGIIWPQVFKSNIMILSHAILAFCLIFQTRELALANYASAPSRQFFEFIWLLYYAEYFVYVFI
modifications: MPT4.1 (point mutant, membrane-bound prenyltransferase)
On to B1, for which, in the test with olivetolic acid [1], the CBGA was 168 ± 33 µM, the FCBGA came out at 11 ± 2 µM and the CBGA/FCB was found to be 14.6. Moreover, in the test with olivetolic acid [1] (in words, OA feed, 48 h), the “FCBGA byproduct compared to MPT4” value is recorded as “less FCBGA byproduct” and the “activity towards CBGA formation compared to MPT4” value is listed as “increased activity towards CBGA formation”. In the test with divarinic acid [2], the CBGVA turned out to be 28 ± 8 µM and the FCBGVA came to 0 ± 0 µM. Moreover, in the test on olivetolic acid [3] (6% glucose, strain sCL-SE-0128), the CBGA amounted to 253 ± 18 µM and the FCBGA worked out at 26 ± 2 µM. Besides, the CBGA/FCBGA with olivetolic acid [3] (product ratio) was 9.7.

B2: MPT4: membrane-bound prenyltransferase, SEQ ID NO: 2, comparator (protein)
chain: B1 chain with A25V
modifications: MPT4 (membrane-bound prenyltransferase)
In the case of B2, the CBGA with olivetolic acid [1] was 123 ± 13 µM; in the test with olivetolic acid [4] (2% glucose, strain sCL-SE-0128) it was 123 ± 13 µM; in the test with olivetolic acid [5] (setting [8]), 230 ± 15 µM. The FCBGA was found to be 23 ± 2 µM in the test on olivetolic acid [1]; 23 ± 2 µM with olivetolic acid [4] (2% glucose, strain sCL-SE-0128); 51 ± 1 µM in the test on olivetolic acid [5] (setting [8]). The CBGA/FCB with olivetolic acid [1] is recorded as 5.3. Further, the CBGVA in the test on divarinic acid [2] and in the test with divarinic acid [6] was 19 ± 2 µM in each case. Besides, the FCBGVA in the test with divarinic acid [2] and with divarinic acid [6] was 0 ± 0 µM in each case. In addition, the CBGA/FCBGA with olivetolic acid [4] (product ratio) is listed as 5.3; in the test on olivetolic acid [5] (product ratio), 4.5.

B3: APT73.74: recombinant soluble aromatic prenyltransferase, SEQ ID NO: 37 (protein)
chain: MDEVYAAVEQTSRLLDVPCSPDRFEPVWKAFGDQLPDSHLVFSMAAGEAHRGELDFDFSLRPEGADPYTTALEHGFIEPTDHPVGSVLAEVGKRFAIASYGVEYGVVGGFKKSYAFFPLDDFPPLAQFAEVPSVPPCLAGHVETLTRLGFDDKVSIIGVNYRKNTLNVYLAASAVDTGDKLALLRAFGYPEPDARVRQFIERSFRLYPTFNWDSSAAERICFAVHTQQPGELPAPHDEPTEAFARQVPHVYEGGREFVSGVALAPSGASYYKLAALYQKARRCLH
modifications: APT73.74 (mutant soluble aromatic prenyltransferase)
As for B3, in the test on olivetolic acid [1], the CBGA is 123 ± 5 µM, the FCBGA amounted to 18 ± 1 µM and the CBGA/FCB is listed as 6.7. Besides, the “selectivity (CBGA/FCBGA)” value with olivetolic acid [1] (setting [9]) is “better selectivity”. In the test with divarinic acid [2], this molecule came in with a CBGVA of 10 ± 0 µM and an FCBGVA of 0 ± 0 µM.

B4: APT73.77: recombinant soluble aromatic prenyltransferase, SEQ ID NO: 38 (protein)
chain: B3 chain with H285D
modifications: APT73.77 (mutant soluble aromatic prenyltransferase)
For the molecule B4, in the test with olivetolic acid [1], the CBGA was 145 ± 13 µM, the FCBGA was 55 ± 3 µM and the CBGA/FCB was determined as 2.6. Also, the “overall activity (CBGA+FCBGA)” value with olivetolic acid [1] (setting [9]) is on record as “better overall activity”. Besides, in the test with olivetolic acid [7] (setting [10]), the CBGA was 215 ± 11 µM and the FCBGA came to 32 ± 1 µM. In the test with olivetolic acid [7] (olivetolic acid feed, 48 h quench, product ratio), the CBGA/FCBG is 6.8. In the test with divarinic acid [2], this molecule showed a CBGVA of 10 ± 1 µM and an FCBGVA of 1 ± 1 µM. In the test with divarinic acid [2] (product ratio), the CBGVA/FCBGVA is listed as 12.5.

Values taken from patent US20240228986A1, “ENGINEERED CELLS, ENZYMES, AND METHODS FOR PRODUCING CANNABINOIDS” (priority 2021, published 2024).
